Source: US20240101654A1 (NEURIMMUNE, published 2024)

Biological target: AD-associated Tau in brain extracts of patients with AD (human, UniProt P10636-8 2-441, limits assumed, pathologically modified (sites not given))
Assay: cell-based or functional assay

Chain of AD-associated Tau in brain extracts of patients with AD (P10636 other isoform, or with tags, fused parts or gaps limits assumed): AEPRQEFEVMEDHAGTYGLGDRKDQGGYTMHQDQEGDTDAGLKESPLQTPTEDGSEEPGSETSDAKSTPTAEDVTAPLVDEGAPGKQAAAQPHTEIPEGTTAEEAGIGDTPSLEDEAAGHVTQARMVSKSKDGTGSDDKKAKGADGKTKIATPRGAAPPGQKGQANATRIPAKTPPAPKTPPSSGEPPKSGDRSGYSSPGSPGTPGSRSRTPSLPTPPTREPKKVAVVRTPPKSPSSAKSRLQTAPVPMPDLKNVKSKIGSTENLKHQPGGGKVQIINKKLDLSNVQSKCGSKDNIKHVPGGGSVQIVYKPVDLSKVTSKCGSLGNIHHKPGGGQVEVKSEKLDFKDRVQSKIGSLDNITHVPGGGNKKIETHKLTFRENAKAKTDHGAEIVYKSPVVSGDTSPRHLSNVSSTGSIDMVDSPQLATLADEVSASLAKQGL

Binder | IC50 of Tau aggregation (FRET) in HEK293T Tau biosensor cells seeded with immunodepleted AD brain homogenate [µg/mL]
NI-502.8H1 (antibody, V domains shown) VH: EVQLVESGGGLVQPGGSLRLSCAASGFTFSIYTMSWVRQAPGKGLEWVSAILSDGSTYYADSVEGRFTISRDNSKTTLYLQMNSLTAEDTAVYYCTKRVEGSFRGWGQGTLVTVSS VL: EIVMTQSPGTLSLSPGESATLSCRASQSVSTTYLAWYQQKPGQAPRLLIYGASSRATGIPDRFSGSGSGTDFTLTISRLEPEDFAVYYCQQYGGSRLITFGQGTRLEIK | 7.1
NI-502.4P3 (antibody, V domains shown) VH: EVQLVQSGAEVKKPGESLKISCKVSGYDFSKYWIGWVRQMPGKGLEWMGLIYPGDSDTRYSPSLEGQVSISADKSISAAYLQFSSLKASDSAMYYCVRKGYSAYLGGWFDPWGQGTLVTVSS VL: DIQLTQSPDSLAASLGERVTINCRSSQNIFYNSNNKNFLAWYQQKAGQSPKLLIYWASTRESGVPDRFSGSGSGTDFTLTISGLQAGDVAVYFCQQYFTDAPTFGGGTKVEIK | 6.5
